Experimental data: US20260193326A1 (published 2026)
Numbering of substitutions follows the chain as printed.

B1: A4-114 (VHH)
VHH: VQLQESGGGLVQTGGSLRLSCVASGSIFSINTVGWYRQAPGKQRELVATVTRAGSTWYAGSVKGRFTISRDNTKNTIYLQMNSLRPEDTAVYYCHVDELRQSTWTTSNLWGQGTQVTVSS
B2: A4-105 (VHH)
VHH: VQLQESGGGLVQPGGSLRLSCAASGSIFSLNAMGWYRQAPGKQRELVATITSGGSTNYADSVKGRFTISRDNAKNTAYLQMNNLQPEDTAVYYCHVDEVRESIWTTSNLWGQGTQVTVSS
B3: A4-111 (VHH)
VHH: VQLQESGGGLAQPGGSLRLSCAASGSNFSINTMGWYRQRAGKQREFVATITRGGSTNYGDSVKGRFTISRDNAKTTVYLQMNSLRPEDTAVYYCHLDEVRESTWTTSNLWGQGTQVTVSS
B4: A4-002 (VHH)
VHH: VQLQESGGGLVQPGGSLRLSCAASGRSFSINTMGWYRQAPGKQRELVAAVTRGGSTNYAGSVKGRFTISRDNAKNTVYLQMNSLRPEDTAVYYCHIDEVRQSSWTTSNIWGQGTQVTVSS
B5: A4-H5 (VHH)
VHH: VQLQASGGGFVQPGGSLRLSCAASGRGFSINTMGWFRQAPGKERELVAVVTRGGTTYYADSVKGRFTISRDNSKNTVYLQMNSLRAEDTAVYYCHVDEVRQSSWTTSNLWGQGTQVTVSS
B6: A4-H2 (VHH)
VHH: B5 VHH with G27S, L46F, T55S, V91T, V96I, L109I
B7: A4-H3 (VHH)
VHH: B5 VHH with R26S, G27I, T32L, V50I, R52P, T55N, V91T
B8: A4-H6 (VHH)
VHH: B5 VHH with Q4V, A5E, F10L, E43G, V49I, Q115L
B9: A4-H1 (VHH)
VHH: VQLVESGGGLVQPGGSLRLSCAASGRSFSINTMGWFRQAPGKGLEAVAIVTRGGSTYYADSVKGRFTISRDNSKNTLYLQMNSLRAEDTAVYYCHIDEVRQSSWTTSNIWGQGTLVTVSS
B10: A4-H4 (VHH)
VHH: B9 VHH with R26S, S27I, T32L, A46L, V50I, R52P, S55N, L77V, I96V, I109L
B11: A4-B3 (VHH)
chain: VQLVESGGGLVQPGGSLRLSCAASGRSFSINTMGWFRQAPGKGLEAVAIVTRGGSTYYADSVKGRFTISRDNSKNTLYLQMNSLRAEDTAVYYCHIDEVRQSSWTTSNIWGQGTLVTVSSGGGGSGGGGSGGGGSVQLVESGGGLVQPGGSLRLSCAASGRSFSINTMGWFRQAPGKGLEAVAIVTRGGSTYYADSVKGRFTISRDNSKNTLYLQMNSLRAEDTAVYYCHIDEVRQSSWTTSNIWGQGTLVTVSS
B12: A4-B4 (bispecific antibody)
chain: B11 chain with R161S, S162I, T167L, A181L, V185I, R187P, S190N, L212V, I231V, I244L
B13: A4-T2 (A4-017 with a C-terminal GGGGS linker followed by a 6xHis tag) (VHH)
VHH: B4 VHH with R26S, S27I, T32L, A49T, V50I, S55N, I96V, I109L
B14: A4-L1 (A4-017 with a C-terminal IgA hinge followed by a 6xHis tag) (VHH)
VHH: B4 VHH with R26S, S27I, T32L, A49T, V50I, S55N, I96V, I109L
B15: A4-T1 (A4-017 with a C-terminal 6xHis tag) (VHH)
VHH: B4 VHH with R26S, S27I, T32L, A49T, V50I, S55N, I96V, I109L
B16: A4-M1 (A4-017 with an N-terminal amino acid sequence MetAlaGln) (VHH)
VHH: QVQLQESGGGLVQPGGSLRLSCAASGSIFSINLMGWYRQAPGKQRELVATITRGGNTNYAGSVKGRFTISRDNAKNTVYLQMNSLRPEDTAVYYCHVDEVRQSSWTTSNLWGQGTQVTVSS
B17: A4-M2 (A4-017 with an N-terminal methionine) (VHH)
VHH: B16 VHH

molecular target: T1, AAV5 (adeno-associated virus serotype 5); experiment: SPR, AAV on CM5 chip
T1 construct: also called adeno-associated virus serotype 5
Description: (§1) AAV was amine-coupled to a CM5 sensor chip at a density of 500-800 response units (RU). Nanobodies were injected at seven concentrations (1-100 nM) with a flow rate of 45 μL/min, and chip regeneration was performed using glycine-HCl (pH 1.5). Binding curves at different nanobody concentrations were used to calculate kinetic parameters (Kₐ, Kd, KD) (Table 2 and FIG. 2).

Binder	Kd	koff	kon
B1	7.11 nM	0.0011 s⁻¹	155000 M⁻¹ s⁻¹
B2	14 nM	0.00139 s⁻¹	99600 M⁻¹ s⁻¹
B3	1.06 nM	9e-05 s⁻¹	85300 M⁻¹ s⁻¹

molecular target: T2, AAV8 (adeno-associated virus serotype 8); experiment: SPR, AAV on CM5 chip
T2 construct: also called adeno-associated virus serotype 8
Description: as §1

Binder	Kd	koff	kon
B1	1.81 nM	0.00017 s⁻¹	94000 M⁻¹ s⁻¹
B2	21.7 nM	0.00391 s⁻¹	180000 M⁻¹ s⁻¹
B3	1.88 nM	0.00014 s⁻¹	74500 M⁻¹ s⁻¹

molecular target: T3, AAV9 (adeno-associated virus serotype 9); experiment: SPR, AAV on CM5 chip
T3 construct: also called adeno-associated virus serotype 9
Description: as §1

Binder	Kd	koff	kon
B1	472 nM	0.00123 s⁻¹	2610 M⁻¹ s⁻¹
B2	17 nM	0.00189 s⁻¹	111000 M⁻¹ s⁻¹
B3	2 nM	0.00025 s⁻¹	125000 M⁻¹ s⁻¹

molecular target: T4, AAV2 (adeno-associated virus serotype 2, UniProt P03135 1-735); experiment: SPR, AAV on CM5 chip
T4 construct: also called adeno-associated virus serotype 2
Description: as §1

Binder	Kd	koff	kon
B1	1.95 nM	0.00022 s⁻¹	113000 M⁻¹ s⁻¹
B2	34.2 nM	0.00543 s⁻¹	159000 M⁻¹ s⁻¹
B3	3.51 nM	0.0002 s⁻¹	56900 M⁻¹ s⁻¹

molecular target: T5, AAV9 (adeno-associated virus serotype 9 (AAV9)); experiment: 1 mL column of A4-002 coupled to agarose gel (11.58 mg/g gel); AAV capsid particles bound
T5 construct: also called adeno-associated virus serotype 9; AAV9 antigen

Binder	binding capacity
B4	1.26e+14 VP

molecular target: T6, AAV6 (adeno-associated virus serotype 6 (AAV6)); experiment: as above
T6 construct: also called adeno-associated virus serotype 6

Binder	binding capacity
B4	9.2e+13 VP

molecular target: T7, AAV5 (adeno-associated virus serotype 5 (AAV5)); experiment: as above
T7 construct: also called adeno-associated virus serotype 5; AAV5 antigen

Binder	binding capacity
B4	1.17e+14 VP

molecular target: T8, AAV8 (adeno-associated virus serotype 8 (AAV8)); experiment: as above
T8 construct: also called adeno-associated virus serotype 8; AAV8 antigen

Binder	binding capacity
B4	1.02e+14 VP

molecular target: T1, AAV5; experiment: SPR, AAV on CM5 chip; remark: another data set of the same source

Binder	Kd	koff	kon
B5	823 nM	0.00152 s⁻¹	1850 M⁻¹ s⁻¹
B6	8.51 nM	0.00139 s⁻¹	163000 M⁻¹ s⁻¹
B7	3.05 nM	0.00048 s⁻¹	157000 M⁻¹ s⁻¹
B8	746 nM	0.00565 s⁻¹	7570 M⁻¹ s⁻¹
B9	8.76 nM	0.00153 s⁻¹	175000 M⁻¹ s⁻¹
B10	2.86 nM	0.00032 s⁻¹	112000 M⁻¹ s⁻¹

molecular target: T2, AAV8; experiment: SPR, AAV on CM5 chip; remark: another data set of the same source

Binder	Kd	koff	kon
B5	302 nM	0.0013 s⁻¹	4300 M⁻¹ s⁻¹
B6	1.98 nM	0.00028 s⁻¹	141000 M⁻¹ s⁻¹
B7	9.59 nM	0.00128 s⁻¹	134000 M⁻¹ s⁻¹
B8	344 nM	0.00164 s⁻¹	4760 M⁻¹ s⁻¹
B9	6.82 nM	0.00135 s⁻¹	198000 M⁻¹ s⁻¹
B10	9.44 nM	0.00125 s⁻¹	132000 M⁻¹ s⁻¹

molecular target: T3, AAV9; experiment: SPR, AAV on CM5 chip; remark: another data set of the same source

Binder	Kd	koff	kon
B5	1900 nM	0.0058 s⁻¹	3050 M⁻¹ s⁻¹
B6	400 nM	0.00188 s⁻¹	4700 M⁻¹ s⁻¹
B7	4.32 nM	0.00073 s⁻¹	169000 M⁻¹ s⁻¹
B8	1160 nM	0.00177 s⁻¹	1530 M⁻¹ s⁻¹
B9	127 nM	0.00069 s⁻¹	5420 M⁻¹ s⁻¹
B10	5.91 nM	0.00078 s⁻¹	132000 M⁻¹ s⁻¹

molecular target: T4, AAV2; experiment: SPR, AAV on CM5 chip; remark: another data set of the same source

Binder	Kd	koff	kon
B8	746 nM	0.00565 s⁻¹	7570 M⁻¹ s⁻¹
B9	8.51 nM	0.00139 s⁻¹	163000 M⁻¹ s⁻¹
B10	17.2 nM	0.0017 s⁻¹	99000 M⁻¹ s⁻¹

molecular target: T1, AAV5; experiment: SPR, AAV on CM5 chip; remark: another data set of the same source

Binder	Kd	koff	kon
B11	0.556 nM	0.0001 s⁻¹	180000 M⁻¹ s⁻¹
B12	0.872 nM	0.00016 s⁻¹	184000 M⁻¹ s⁻¹

molecular target: T2, AAV8; experiment: SPR, AAV on CM5 chip; remark: another data set of the same source

Binder	Kd	koff	kon
B11	0.835 nM	8e-05 s⁻¹	95800 M⁻¹ s⁻¹
B12	0.332 nM	5e-05 s⁻¹	151000 M⁻¹ s⁻¹

molecular target: T3, AAV9; experiment: SPR, AAV on CM5 chip; remark: another data set of the same source

Binder	Kd	koff	kon
B11	20.3 nM	0.00095 s⁻¹	46800 M⁻¹ s⁻¹
B12	5.26 nM	0.00063 s⁻¹	120000 M⁻¹ s⁻¹

molecular target: T4, AAV2; experiment: SPR, AAV on CM5 chip; remark: another data set of the same source

Binder	Kd	koff	kon
B11	0.245 nM	2e-05 s⁻¹	81600 M⁻¹ s⁻¹
B12	0.835 nM	8e-05 s⁻¹	95800 M⁻¹ s⁻¹

molecular target: Adeno-associated virus serotype 8 (AAV8) (AAV8); experiment: SPR, AAV amine-coupled to CM5 chip, nanobody 1-50 nM as analyte

Binder	Kd	koff	kon
B13	102 nM	0.00078 s⁻¹	7650 M⁻¹ s⁻¹
B14	220 nM	0.00093 s⁻¹	4230 M⁻¹ s⁻¹
B15	202 nM	0.00148 s⁻¹	7310 M⁻¹ s⁻¹
B16	196 nM	0.0014 s⁻¹	7150 M⁻¹ s⁻¹
B17	171 nM	0.001 s⁻¹	5830 M⁻¹ s⁻¹

molecular target: Adeno-associated virus serotype 5 (AAV5) (AAV5); experiment: as above

Binder	Kd	koff	kon
B13	234 nM	0.00147 s⁻¹	6280 M⁻¹ s⁻¹
B14	569 nM	0.00092 s⁻¹	1620 M⁻¹ s⁻¹
B15	268 nM	0.00193 s⁻¹	7200 M⁻¹ s⁻¹
B16	324 nM	0.00189 s⁻¹	5830 M⁻¹ s⁻¹
B17	415 nM	0.002 s⁻¹	4820 M⁻¹ s⁻¹

molecular target: Adeno-associated virus serotype 9 (AAV9) (AAV9); experiment: as above

Binder	Kd	koff	kon
B13	0.513 nM	0.0001 s⁻¹	195000 M⁻¹ s⁻¹
B14	0.802 nM	0.00011 s⁻¹	137000 M⁻¹ s⁻¹
B15	0.713 nM	0.00012 s⁻¹	168000 M⁻¹ s⁻¹
B16	0.821 nM	0.00015 s⁻¹	183000 M⁻¹ s⁻¹
B17	0.874 nM	0.00013 s⁻¹	149000 M⁻¹ s⁻¹
